Like-named read-outs stand apart in the source and are kept apart here. Numbered stars: 1 amine (or outer) side, 2 acyl side, 3 side chain; on linkers, the order of the positions; unused ones are H or OH. Bridge positions count the residues as written; N and C are the ends. Square brackets hold non-standard residues; d marks the D form. Side chains are listed from the residue outwards. Ends that are not written are not given here. CSA‑2 = Cys(S-CH2CH2COOH), S-(2-carboxyethyl)-L-cysteine, O=C([C@H](CSCCC(=O)[*:3])N[*:1])[*:2]; CSA‑1 = Cys(S-CH2COOH), S-carboxymethyl-L-cysteine, O=C([C@H](CSCC(=O)[*:3])N[*:1])[*:2]; Glu = Glu spacer between Lys side chain and the C16 fatty acid (EC16FA); PhLac = O=C(O)[C@@H](O)Cc1ccccc1; Aad = N[C@@H](CCCC(=O)O)C(=O)O
B1: [PLA6, E16, K20(EC16FA), D28]G(6-29) (peptide)
peptide: [PhLac]TSDYSKYLDERRAK([Glu-C16 fatty acid])DFVQWLMDT-NH2
B2: [PLA6, E16K20(lactam), K24(EC16FA), D28]G(6-29) (peptide)
peptide: [PhLac]TSDYSKYLDERRAKDFVK([Glu-C16 fatty acid])WLMDT-NH2
modifications: lactam 11-15
B3: [PLA6, E16K20(lactam), D28, K29(EC16FA)]G(6-29) (peptide)
peptide: [PhLac]TSDYSKYLDERRAKDFVQWLMDK([Glu-C16 fatty acid])-NH2
modifications: lactam 11-15
B4: [PLA6, K10(EC16FA), E16, K20,D28]G(6-29) (peptide)
peptide: [PhLac]TSDK([Glu-C16 fatty acid])SKYLDERRAKDFVQWLMDT-NH2
B5: [PLA6, E9K12(Lactam)] G(6-29) (peptide)
peptide: [PhLac]TSEYSKYLDSRRAQDFVQWLMNT-NH2
modifications: lactam 4-7
B6: [S2Q3, E9, E16K20(Lactam), D28] G(2-29) (peptide)
peptide: SQGTFTSEYSKYLDERRAKDFVQWLMDT-NH2
modifications: lactam 15-19
B7: [Leu^4, Glu^9]Glucagon(aa4-29)-NH2 (peptide)
peptide: LTFTSEYSKYLDSRRAQDFVQWLMNT-NH2
notes: also called peptide no
B8: [hGlu^9]Glucagon(aa6-29)-NH2 (peptide)
peptide: FTS[Aad]YSKYLDSRRAQDFVQWLMNT-NH2
modifications: N-terminus assumed
SMILES: CSCC[C@H](NC(=O)[C@H](CC(C)C)NC(=O)[C@H](Cc1c[nH]c2ccccc12)NC(=O)[C@H](CCC(N)=O)NC(=O)[C@@H](NC(=O)[C@H](Cc1ccccc1)NC(=O)[C@H](CC(=O)O)NC(=O)[C@H](CCC(N)=O)NC(=O)[C@H](C)NC(=O)[C@H](CCCNC(=N)N)NC(=O)[C@H](CCCNC(=N)N)NC(=O)[C@H](CO)NC(=O)[C@H](CC(=O)O)NC(=O)[C@H](CC(C)C)NC(=O)[C@H](Cc1ccc(O)cc1)NC(=O)[C@H](CCCCN)NC(=O)[C@H](CO)NC(=O)[C@H](Cc1ccc(O)cc1)NC(=O)[C@H](CCCC(=O)O)NC(=O)[C@H](CO)NC(=O)[C@@H](NC(=O)[C@@H](N)Cc1ccccc1)[C@@H](C)O)C(C)C)C(=O)N[C@@H](CC(N)=O)C(=O)N[C@H](C(N)=O)[C@@H](C)O
notes: also called [hE^9]Glucagon(aa6-29)-NH2; peptide no; 12
B9: [(CSA-1)^9]Glucagon(aa6-29)-NH2 (peptide)
peptide: FTS[CSA‑1]YSKYLDSRRAQDFVQWLMNT-NH2
modifications: N-terminus assumed
SMILES: CSCC[C@H](NC(=O)[C@H](CC(C)C)NC(=O)[C@H](Cc1c[nH]c2ccccc12)NC(=O)[C@H](CCC(N)=O)NC(=O)[C@@H](NC(=O)[C@H](Cc1ccccc1)NC(=O)[C@H](CC(=O)O)NC(=O)[C@H](CCC(N)=O)NC(=O)[C@H](C)NC(=O)[C@H](CCCNC(=N)N)NC(=O)[C@H](CCCNC(=N)N)NC(=O)[C@H](CO)NC(=O)[C@H](CC(=O)O)NC(=O)[C@H](CC(C)C)NC(=O)[C@H](Cc1ccc(O)cc1)NC(=O)[C@H](CCCCN)NC(=O)[C@H](CO)NC(=O)[C@H](Cc1ccc(O)cc1)NC(=O)[C@H](CSCC(=O)O)NC(=O)[C@H](CO)NC(=O)[C@@H](NC(=O)[C@@H](N)Cc1ccccc1)[C@@H](C)O)C(C)C)C(=O)N[C@@H](CC(N)=O)C(=O)N[C@H](C(N)=O)[C@@H](C)O
notes: also called [C^9(SCH2COOH)]Glucagon(aa6-29)-NH2; peptide no; 13
B10: [(CSA-2)^9]Glucagon(aa6-29)-NH2 (peptide)
peptide: FTS[CSA‑2]YSKYLDSRRAQDFVQWLMNT-NH2
modifications: N-terminus assumed
SMILES: CSCC[C@H](NC(=O)[C@H](CC(C)C)NC(=O)[C@H](Cc1c[nH]c2ccccc12)NC(=O)[C@H](CCC(N)=O)NC(=O)[C@@H](NC(=O)[C@H](Cc1ccccc1)NC(=O)[C@H](CC(=O)O)NC(=O)[C@H](CCC(N)=O)NC(=O)[C@H](C)NC(=O)[C@H](CCCNC(=N)N)NC(=O)[C@H](CCCNC(=N)N)NC(=O)[C@H](CO)NC(=O)[C@H](CC(=O)O)NC(=O)[C@H](CC(C)C)NC(=O)[C@H](Cc1ccc(O)cc1)NC(=O)[C@H](CCCCN)NC(=O)[C@H](CO)NC(=O)[C@H](Cc1ccc(O)cc1)NC(=O)[C@H](CSCCC(=O)O)NC(=O)[C@H](CO)NC(=O)[C@@H](NC(=O)[C@@H](N)Cc1ccccc1)[C@@H](C)O)C(C)C)C(=O)N[C@@H](CC(N)=O)C(=O)N[C@H](C(N)=O)[C@@H](C)O
notes: also called [C^9(SCH2CH2COOH)]Glucagon (aa6-29)-NH2; peptide no; 14

Columns and labels:
human glucagon receptor [1] = biological target: T1, human glucagon receptor (human, UniProt P47871 26-477); experiment: cell-based or functional assay
human GLP-1 receptor [2] = biological target: T2, human GLP-1 receptor (human, UniProt P43220 24-463); experiment: cell-based or functional assay
human glucagon receptor [3] = biological target: T1, human glucagon receptor; experiment: cell-based or functional assay; remark: listed apart in the source
human GLP-1 receptor [4] = biological target: T2, human GLP-1 receptor; experiment: cell-based or functional assay; remark: listed apart in the source
human glucagon receptor [5] = biological target: T1, human glucagon receptor; experiment: SPA competition vs 125I-glucagon, receptor membranes
human glucagon receptor [6] = biological target: T1, human glucagon receptor; experiment: cell-based or functional assay; remark: listed apart in the source
human glucagon receptor [7] = biological target: T1, human glucagon receptor; experiment: cell-based or functional assay; remark: listed apart in the source
human glucagon receptor [8] = biological target: T1, human glucagon receptor; experiment: SPA competition vs 125I-glucagon, receptor membranes; remark: listed apart in the source

T1 sequence (P47871 26-477): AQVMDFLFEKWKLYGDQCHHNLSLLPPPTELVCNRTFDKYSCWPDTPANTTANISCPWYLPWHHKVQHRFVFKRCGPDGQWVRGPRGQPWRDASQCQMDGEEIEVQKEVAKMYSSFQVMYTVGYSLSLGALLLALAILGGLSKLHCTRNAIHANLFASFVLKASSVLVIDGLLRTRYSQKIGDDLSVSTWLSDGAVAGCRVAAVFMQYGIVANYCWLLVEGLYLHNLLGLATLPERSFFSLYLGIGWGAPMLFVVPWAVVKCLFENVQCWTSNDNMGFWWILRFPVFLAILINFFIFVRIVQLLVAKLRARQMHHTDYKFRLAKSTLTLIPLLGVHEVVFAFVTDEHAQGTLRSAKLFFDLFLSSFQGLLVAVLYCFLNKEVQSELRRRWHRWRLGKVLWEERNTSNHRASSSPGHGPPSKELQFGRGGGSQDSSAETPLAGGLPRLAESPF

Row | Binder | Glucagon antagonism IC50 (inhibit 0.4 nM glucagon) (human glucagon receptor [1]) [nM] | GLP-1 agonism EC50 (human GLP-1 receptor [2]) [nM] | IC50 (human glucagon receptor [5]) [nM] | cAMP (I/A)50 inhibition index (human glucagon receptor [6]) | cAMP pA2 (human glucagon receptor [6]) | cAMP IC50 (human glucagon receptor [7]) [nM] | cAMP pA2 (human glucagon receptor [7]) | IC50 (human glucagon receptor [8]) [nM] | also measured
1 | B1 | 576 | 1290 |  |  |  |  |  |  | 
2 | B2 | 372 | 293 |  |  |  |  |  |  | 
3 | B3 | 386 | 1410 |  |  |  |  |  |  | 
4 | B4 | 222 | 105 |  |  |  |  |  |  | 
5 | B5 |  |  |  |  |  |  |  |  | Glucagon antagonism IC50 (inhibit 0.8 nM glucagon) (human glucagon receptor [3]): 72.5 nM; GLP-1 agonism EC50 (human GLP-1 receptor [4]): 144 nM
6 | B6 |  |  |  |  |  |  |  |  | Glucagon antagonism IC50 (inhibit 0.8 nM glucagon) (human glucagon receptor [3]): 23.4 nM; GLP-1 agonism EC50 (human GLP-1 receptor [4]): 284 nM
7 | B7 |  |  | 36.4 |  |  |  |  |  | 
8 | B8 |  |  | 163 | 2360 | 6.27 | 472 | 6.27 | 163 | 
9 | B9 |  |  | 107 | 506 | 6.68 | 101 | 6.68 | 107 | 
10 | B10 |  |  | 146 | 580 | 6.64 | 116 | 6.64 | 146 | 
